Measurements as given in IntAct's records for PubMed 31515488.

B1: Peroxisomal bifunctional enzyme (Homo sapiens), Q08426 (parent)
chain: MAEYTRLHNALALIRLRNPPVNAISTTLLRDIKEGLQKAVIDHTIKAIVICGAEGKFSAGADIRGFSAPRTFGLTLGHVVDEIQRNEKPVVAAIQGMAFGGGLELALGCHYRIAHAEAQVGLPEVTLGLLPGARGTQLLPRLTGVPAALDLITSGRRILADEALKLGILDKVVNSDPVEEAIRFAQRVSDQPLESRRLCNKPIQSLPNMDSIFSEALLKMRRQHPGCLAQEACVRAVQAAVQYPYEVGIKKEEELFLYLLQSGQARALQYAFFAERKANKWSTPSGASWKTASARPVSSVGVVGLGTMGRGIVISFARARIPVIAVDSDKNQLATANKMITSVLEKEASKMQQSGHPWSGPKPRLTSSVKELGGVDLVIEAVFEEMSLKKQVFAELSAVCKPEAFLCTNTSALDVDEIASSTDRPHLVIGTHFFSPAHVMKLLEVIPSQYSSPTTIATVMNLSKKIKKIGVVVGNCFGFVGNRMLNPYYNQAYFLLEEGSKPEEVDQVLEEFGFKMGPFRVSDLAGLDVGWKSRKGQGLTGPTLLPGTPARKRGNRRYCPIPDVLCELGRFGQKTGKGWYQYDKPLGRIHKPDPWLSKFLSRYRKTHHIEPRTISQDEILERCLYSLINEAFRILGEGIAASPEHIDVVYLHGYGWPRHKGGPMFYASTVGLPTVLEKLQKYYRQNPDIPQLEPSDYLKKLASQGNPPLKEWQSLAGSPSSKL
partner: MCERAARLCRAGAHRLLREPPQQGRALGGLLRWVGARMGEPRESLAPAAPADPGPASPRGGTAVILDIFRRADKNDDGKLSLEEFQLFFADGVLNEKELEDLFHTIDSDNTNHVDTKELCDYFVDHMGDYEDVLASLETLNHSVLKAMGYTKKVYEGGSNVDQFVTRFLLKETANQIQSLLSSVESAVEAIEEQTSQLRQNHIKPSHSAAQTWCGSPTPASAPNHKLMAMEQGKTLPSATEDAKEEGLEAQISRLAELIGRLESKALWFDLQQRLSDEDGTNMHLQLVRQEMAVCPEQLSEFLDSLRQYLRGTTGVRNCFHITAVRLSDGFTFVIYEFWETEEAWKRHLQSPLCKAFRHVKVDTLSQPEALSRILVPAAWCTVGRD
B2: Transcription factor 12 (Homo sapiens), Q99081-3 (parent)
chain: MNPQQQRMAAIGTDKELSDLLDFSAMFSPPVNSGKTRPTTLGSSQFSGSGIDERGGTTSWGTSGQPSPSYDSSRGFTDSPHYSDHLNDSRLGAHEGLSPTPFMNSNLMGKTSERGSFSLYSRDTGLPGCQSSLLRQDLGLGSPAQLSSSGKPGTAYYSFSATSSRRRPLHDSAALDPLQAKKVRKVPPGLPSSVYAPSPNSDDFNRESPSYPSPKPPTSMFASTFFMQDGTHNSSDLWSSSNGMSQPGFGGILGTSTSHMSQSSSYGNLHSHDRLSYPPHSVSPTDINTSLPPMSSFHRGSTSSSPYVAASHTPPINGSDSILGTRGNAAGSSQTGDALGKALASIYSPDHTSSSFPSNPSTPVGSPSPLTGTSQWPRPGGQAPSSPSYENSLHSLKNRVEQQLHEHLQDAMSFLKDVCEQSRMEDRLDRLDDAIHVLRNHAVGPSTSLPAGHSDIHSLLGPSHNAPIGSLNSNYGGSSLVASSRSASMVGTHREDSVSLNGNHSVLSSTVTTSSTDLNHKTQENYRGGLQSQSGTVVTTEIKTENKEKDENLHEPPSSDDMKSDDESSQKDIKVSSRGRTSSTNEDEDLNPEQKIEREKERRMANNARERLRVRDINEAFKELGRMCQLHLKSEKPQTKLLILHQAVAVILSLEQQVRERNLNPKAACLKRREEEKVSAVSAEPPTTLPGTHPGLSETTNPMGHM

Variants of: B1
Conditions: with neca2_human NECAB2, Q7Z6G3

effect of a mutation on the interaction	Variant
with no effect	S703F

Variants of: B2
Conditions: with cdn2c_human CDKN2C

effect of a mutation on the interaction	Variant
with no effect	Y120C
with no effect	A155T

More lines, now with the values behind:

Variant	effect of a mutation on the interaction
N606H	with no effect
R74G	with no effect
A482V	with no effect
S446F	with no effect

Variants of: B2
Conditions: with psa1_human PSMA1, P25786
Chain of psa1_human PSMA1, P25786 (P25786 whole entry): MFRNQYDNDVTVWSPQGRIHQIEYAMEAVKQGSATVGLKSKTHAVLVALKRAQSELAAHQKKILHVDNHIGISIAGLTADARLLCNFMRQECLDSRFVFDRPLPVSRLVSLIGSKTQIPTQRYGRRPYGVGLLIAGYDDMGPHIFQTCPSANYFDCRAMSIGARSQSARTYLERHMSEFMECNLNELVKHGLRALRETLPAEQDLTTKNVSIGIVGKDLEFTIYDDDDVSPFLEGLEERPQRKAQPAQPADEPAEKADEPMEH

effect of a mutation on the interaction	Variant
with no effect	Y120C
with no effect	A155T

Continued, variant first:

Variant	effect of a mutation on the interaction
N606H	with no effect
R74G	with no effect
A482V	with no effect
S446F	with no effect
